Results from article PMC4072508, “Genome-Wide Prediction and Validation of Peptides That Bind Human Prosurvival Bcl-2 Proteins” (PLoS Computational Biology, 2014).

target: Bcl-xL, Q07817; test: peptide SPOT array, c-Myc-tagged receptor at 1 uM or 100 nM, anti-c-Myc-Cy3
Sequence (Q07817 1-209): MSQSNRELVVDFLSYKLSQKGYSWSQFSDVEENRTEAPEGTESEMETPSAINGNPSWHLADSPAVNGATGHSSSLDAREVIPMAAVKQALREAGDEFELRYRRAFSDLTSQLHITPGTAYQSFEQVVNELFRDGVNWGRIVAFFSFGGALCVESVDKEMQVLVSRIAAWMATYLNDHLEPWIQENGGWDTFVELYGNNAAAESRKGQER

| SPOT signal as a fraction of Bim BH3's signal on the same receptor and array | Binder |
| --- | --- |
| 0.19 | GAQHSTMTSTLRRLLEDIFKGVVTKG [CCDC138] |
| 0.67 | VYILRKAARRLAQVLRAAGVRVGLLS |
| 0.24 | ATKRETAATFDKKVAKEFGFQNNGFS [NPLOC4] |
| 0.42 | VFERCELARTLKRLLMDGYRGISLAN [LYZ] |
| 0.41 | FTGNNTAVQEDKRVSEQFTATFRRKA [TUBB4Q] |
| 0.03 | LASIGGLAARLQLWAFKLDYDSMERE [FHOD1] |
| 0.59 | AHKARALARLLRQTLLAAFSDFKRLQ [FAM43B] |
| 0.05 | EGTKIVLGKQDIESADEVRRKSLVLK [TAF1] |
| 0.02 | QGDVQMAVSVLIVLGERVRKDIDEQT [WDR24] |
| 0.05 | SQDVERFCRQLSSMASKLIISPFTLV [ABCD4] |
| 0.75 | RGRTRGWVQTLARMSRRTRGPVERAA [C6orf223] |
| 0.03 | FSEFIGMIQEIQQAAERLERNFVDSR [RNF123] |
| 0.08 | GFANHDVVEVDRNAGQVVHLTLVRRK [INADL] |
| 0.05 | RTNNYQLSDEDRKNGVELTSLRQKVA [GRIPAP1] |
| 0.03 | MDYVGGYALCLDMTARDVQDECKKKG [FAHD1] |
| 0.09 | GENIRQAASSLQQASLKLFEMAYKKM [HSPA9] |
| 1.34 | AIKPVSFIRDDKKIARHFRFGNQEDA [USP36] |
| 0.02 | VPFATELHERLAKDSEKLKEEIGKEL [APOA4] |
| 0.02 | VENTTDLASILIKDADRLNSGCYELK [TTN] |
| 0.22 | LKELDLSGNSDSHSAVKSLCKTLRRP [NLRP1] |
| 0.03 | SCMATVIHNPLKALLDQFYKEAIEHC [DPF3] |
| 0.02 | ENGHTDVADVLLQAGADLEHESEGGR [ANKRD17] |
| 0.03 | LSSISELSARLHLWAFKMDYETTEKE [FHOD3] |
| 0.95 | NEEGQQFALKLHRLGRTSFRNLKNKR |
| 0.03 | TNISWRACDHLRCILCDFLVVSYDDY [C8orf37] |
| 0.05 | PVQVQQYIKKLYILGGEVAESAQKCT [PAXIP1] |
| 0.02 | EEIIHKLAMQLRHILDNIDHRMVRED [PXT1] |
| 0.02 | RYPILENPEILRKTLDDFLNRIALTD [CCNH] |

More lines, now with the values behind:

| Binder | SPOT signal as a fraction of Bim BH3's signal on the same receptor and array |
| --- | --- |
| KVFLNKAADFIEELSSLFKSHSSKRI [MYPN] | 0.13 |
| IKKSVTKGEMLKIVLKRFREHFPEIL [MAGEB2] | 0.2 |
| FDNAMLRARRLYQLAYDTYQEFEEAY [GH2] | 0.04 |
| GRQVEDAGRVLEGISKSISYDLDGEE [FIBIN] | 0.02 |
| SRELEEISERLEEAGGATSVQIEMNK [MYH6] | 0.02 |
| NEEGQQFALKLHRLLRTSFRNLKNKR | 0.69 |
| DTIFHRAAVRLRDLLGAILRHARRQA [BRPF3] | 0.55 |
| DISALTASNLDKKYAEKYSGILEGPV [FIGN] | 0.02 |
| DIFMNNVIVRLSQISEDVIRLFKKSK [SRGAP3] | 0.18 |
| GEGAEEAAKDLADIAAFFRSGFRKND [TRIO] | 0.03 |
| PHQFDGVPDKLIQAAYQVKYNSKKMK [EVI5] | 0.69 |
| KNGHREVIRQLLRAGIEINRQTKTGT [CASKIN2] | 0.23 |
| VGNVDECGKKLVEVARRCRDEAIAAC [XXXX] | 0.02 |
| WRERPDVGRYLRELSGSGLERLRREP [COG8] | 0.09 |
| VAALEQAAYKLDAYSKKLEAKYKKLE [BLOC1S2] | 0.25 |
| TEEMKHNVEKLNELSKNLNRAFAEFE [DNAH3] | 0.02 |
| SSLSDGLPVHDANIADELTQKKKMFK [AGBL2] | 0.03 |
| EVRSSQFARKLWRSSRRISQVSSGET [NBEAL2] | 0.86 |
| RQKIQRTARKLFGLSVRCRHNPNHQL [DBC1] | 0.69 |
| TGGLPELASRLTRISAVLLEGMNKET [TCP11L2] | 0.03 |
| PFDCRDYAVVDRKYADKIYNISMKHP | 0.36 |
| PFDCRDYAVVLRKYLDKIYNISMKHP | 0.51 |
| LTKAERLSKELLQCGRIIKEEWIEIE [TTC23] | 0.03 |
| RAEIEKMAEKINDIAYEMESRRTYLQ [C3orf15] | 0.03 |
| VYILRKAARRDAQVSRAAGVRVGLLS | 0.94 |
| LFQLKFTAKQLEKLAKKAEKDSKAEQ [CHMP1A] | 0.18 |
| LDDVKILANGLLQLGHGLKDFVHKTK [ANGPTL3] | 0.04 |
